T1: recombinant human CD3ε-CD3δ heterodimeric protein (CD3εδ) (Homo sapiens)
T1 construct: human CD3ε of the recombinant CD3εδ heterodimer; human CD3δ of the recombinant CD3εδ heterodimer; source: in-house prepared
T1 chain 1: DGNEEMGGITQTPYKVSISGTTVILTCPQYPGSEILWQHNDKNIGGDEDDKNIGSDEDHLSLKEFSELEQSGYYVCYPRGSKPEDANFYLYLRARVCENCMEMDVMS
T1 chain 2: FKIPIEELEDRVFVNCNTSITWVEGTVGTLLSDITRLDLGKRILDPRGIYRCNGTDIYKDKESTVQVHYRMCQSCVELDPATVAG


Target: T1, recombinant human CD3ε-CD3δ …
Experiment: SPR; Biacore T200, 37 °C, pH 7.4, PB-P+; antibody captured (630 RU) by anti-mouse IgG (Fc) antibody on a CM4 chip; human CD3εδ as analyte, 1.2-4800 nmol/L; 1:1 binding model (mUCHT1, mSP34)
Details: both partners purified

| Binder | Kd [nM] |
| --- | --- |
| mSP34 mIgG2a V1+C19, homodimeric antibody with FAST-Ig V1+C19 mutations (antibody, V domains shown, VH of mSP34; mouse IgG2a (mIgG2a) heavy chain constant region; numbers count on: Eu numbering; VL (lambda) of mSP34; mouse lambda light chain constant region (CL); numbers count on: Kabat numbering; Whole IgG of one HC and one LC; also called anti-CD3; H2L2H2L2; source: Expi293F, transiently expressed, purified (Ab-Capcher MAG2, MonoSpin ProA or MonoSpin ProG); copies: 2 + 2) VH: EVQLVESGGGLVQPKGSLKLSCAASGFTFNTYAMNWVREAPGKGLEWVARIRSKYNNYATYYADSVKDRFTISRDDSQSILYLQMNNLKTEDTAMYYCVRHGNFGNSYVSWFAYWGQGTLVTVSA VL: QAVVTQESALTTSPGETVTLTCRSSTGAVTTSNYANWVQKKPDHLFTGLIGGTNKRAPGVPARFSGSLIGDKAALTITGAQTEDEAIYFCALWYSNLWVFGGGTKLTVL | 25.7 |
| mUCHT1 mIgG2a V1+C19, homodimeric antibody with FAST-Ig V1+C19 mutations (antibody, V domains shown, VH of mUCHT1; mouse IgG2a (mIgG2a) heavy chain constant region; numbers count on: Eu numbering; VL of mUCHT1; mouse kappa light chain constant region (CL); numbers count on: Kabat numbering; Whole IgG of one HC and one LC; also called anti-CD3; H2L2H2L2; source: Expi293F, transiently expressed, purified (Ab-Capcher MAG2, MonoSpin ProA or MonoSpin ProG); copies: 2 + 2) VH: EVQLQQSGPELVKPGASMKISCKASGYSFTGYTMNWVKESHGKNLEWMGLINPYKGVSTYNQKFKDKATLTVDKSSSTAYMELLSLTSEDSAVYYCARSGYYGDSDWYFDVWGQGTTLTVFS VL: DIQMTQTTSSLSASLGDRVTISCRASQDIRNYLNWYQKKPDGTVKLLIYYTSRLHSGVPSKFSGSGSGTDYSLTISNLEQEDIATYFCQQGNTLPWTFAGGTKLEIK | 1.32 |

Further binders by falling Kd, results first:

| Kd [nM] | Binder |
| --- | --- |
| 20.9 | mSP34 mIgG1, homodimeric antibody without FAST-Ig mutations (antibody, V domains shown, VH of the original mouse antibody mSP34; mouse IgG1 (mIgG1) heavy chain constant region; numbers count on: Eu numbering; VL (lambda) of the original mouse antibody mSP34; mouse lambda light chain constant region (CL); Whole IgG of one HC and one LC; also called anti-CD3; H2L2H2L2; source: Expi293F, transiently expressed, purified (Ab-Capcher MAG2 or MonoSpin ProG); copies: 2 + 2) VH: EVQLVESGGGLVQPKGSLKLSCAASGFTFNTYAMNWVRQAPGKGLEWVARIRSKYNNYATYYADSVKDRFTISRDDSQSILYLQMNNLKTEDTAMYYCVRHGNFGNSYVSWFAYWGQGTLVTVSA VL: QAVVTQESALTTSPGETVTLTCRSSTGAVTTSNYANWVQEKPDHLFTGLIGGTNKRAPGVPARFSGSLIGDKAALTITGAQTEDEAIYFCALWYSNLWVFGGGTKLTVL |
| 1.45 | mUCHT1 mIgG1, homodimeric antibody without FAST-Ig mutations (antibody, V domains shown, VH of the original mouse antibody mUCHT1; mouse IgG1 (mIgG1) heavy chain constant region; numbers count on: Eu numbering; VL of the original mouse antibody mUCHT1; mouse kappa light chain constant region (CL); Whole IgG of one HC and one LC; also called anti-CD3; H2L2H2L2; source: Expi293F, transiently expressed, purified (Ab-Capcher MAG2 or MonoSpin ProG); copies: 2 + 2) VH: EVQLQQSGPELVKPGASMKISCKASGYSFTGYTMNWVKQSHGKNLEWMGLINPYKGVSTYNQKFKDKATLTVDKSSSTAYMELLSLTSEDSAVYYCARSGYYGDSDWYFDVWGQGTTLTVFS VL: DIQMTQTTSSLSASLGDRVTISCRASQDIRNYLNWYQQKPDGTVKLLIYYTSRLHSGVPSKFSGSGSGTDYSLTISNLEQEDIATYFCQQGNTLPWTFAGGTKLEIK |

Reference: publication PMC10801562 (Antibodies, 2024)
